Data as given in the supplement of paper PMC10126150.
± gives the standard deviation of the averaged measurements.

Each sequence was assayed on ATP (assay: switch fluorescence ratio, 500 uM ATP over buffer (Cy3 cluster intensity, sum of 5 cycles each) (fold (ratio)); higher = stronger signal-on switching upon ATP binding; sequences stand for … in TCGTCGGCAGCGTCAGATGTGTATAAGAGACAGTTTTTTTTTTTTTTTTTTTTTTTTT…TC). Details: aptamer strand: ATP DNA aptamer (quencher-CACCTGGGGGAGTATTGCGGAGGAAGG + anchor), 100 nM annealed; ATP concentration: 500 uM.
Outline: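 Cy3-labelled switching-strand clusters on a modified Illumina MiSeq flow-cell were annealed to 100 nM quencher-labelled ATP aptamer and imaged first in selection buffer, then after 15 min with 500 uM ATP at 22 °C. NaOH stripping and re-annealing separated each of five buffer/ATP cycles, and clusters outside 100-1000 RFU were excluded. The fluorescence ratio sums target-cycle Cy3 intensity over buffer-cycle Cy3 intensity per cluster and averages it per switch-domain sequence.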
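Further: ATP exposure 15 min at 22 °C before imaging.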

Sequence | switch fluorescence ratio
TAGTCATGCG | 1.04 ± 0.026
TAGTCCAAAT | 0.9738 ± 0.0018
TAGTCGAGAT | 0.989 ± 0.029
TAGTCGCCGA | 0.986 ± 0.017
TAGTCGGCGC | 1 ± 0.047
TAGTCTAGGT | 1.02 ± 0.025
TAGTCTGTTC | 1.01 ± 0.045
TAGTCTTTAG | 1.01 ± 0.0072
TAGTGAGGGT | 1.01 ± 0.021
TAGTGAGTAC | 0.93 ± 0.11
TAGTGATACG | 0.986 ± 0.05
TAGTGATGGT | 0.973 ± 0.029
TAGTGGAAAA | 1.02 ± 0.077
TAGTGGATGG | 1 ± 0.029
TAGTGGGAAT | 0.968 ± 0.032
TAGTGGGGAC | 0.9677 ± 0.0027
TAGTGTAGGC | 1.03 ± 0.014
TAGTGTATTC | 0.989 ± 0.026
TAGTGTCTAG | 0.97 ± 0.07
TAGTGTGGG | 0.99 ± 0.024
TAGTGTTTGG | 1.02 ± 0.073
TAGTTAATTT | 1.01 ± 0.034
TAGTTACCCG | 0.979 ± 0.045
TAGTTACTGG | 1.05 ± 0.021
TAGTTAGGAG | 0.9945 ± 0.0081

Sequence | switch fluorescence ratio
TAGTTAGGCG | 0.959 ± 0.028
TAGTTATGTT | 0.96389 ± 0.00072
TAGTTATTAC | 1.08 ± 0.14
TAGTTATTTG | 0.993 ± 0.044
TAGTTCGGGG | 1.01 ± 0.024
TAGTTCTGTT | 0.983 ± 0.0077
TAGTTGGTGG | 0.954 ± 0.046
TAGTTTATCA | 1.001 ± 0.01
TAGTTTCGGC | 0.958 ± 0.011
TAGTTTGGCT | 1.02 ± 0.047
TAGTTTGGGA | 1.01 ± 0.03
TAGTTTGGGG | 0.999 ± 0.032
TAGTTTGGGT | 0.974 ± 0.012
TAGTTTGTTA | 0.987 ± 0.027
TAGTTTTAT | 0.973 ± 0.016
TAGTTTTCGT | 0.9817 ± 0.0012
TAGTTTTGTA | 0.971 ± 0.05
TAGTTTTTAA | 1.01 ± 0.008
TAGTTTTTCT | 0.971 ± 0.022
TAGTTTTTTC | 0.99 ± 0.021
TATAAAAACG | 1.11 ± 0.2
TATAAAAATT | 1.02 ± 0.025
TATAAAAGAA | 1.04 ± 0.053
TATAAAAGAC | 1.018 ± 0.01
TATAAAATGT | 0.993 ± 0.036

Sequence | switch fluorescence ratio
TATAAAGCAG | 1.03 ± 0.024
TATAAAGGGC | 1.01 ± 0.054
TATAAAGGGG | 1 ± 0.025
TATAAATGAA | 0.9921 ± 0.0043
TATAAATGAT | 1.06 ± 0.047
TATAAATTTG | 1.01 ± 0.016
TATAACATAT | 1.03 ± 0.041
TATAACATG | 1.009 ± 0.0025
TATAAGAGCC | 0.984 ± 0.043
TATAAGGGGC | 0.997 ± 0.027
TATAAGTGGT | 0.992 ± 0.023
TATAAGTGTT | 1.002 ± 0.0067
TATAATCCCT | 1.02 ± 0.083
TATAATTAAT | 0.982 ± 0.029
TATACCATTT | 1.01 ± 0.015
TATACCTTAA | 1.051 ± 0.0042
TATACTATTG | 1.01 ± 0.048
TATACTCAGC | 1.03 ± 0.014
TATACTGTTG | 0.976 ± 0.021
TATACTTGCC | 1.04 ± 0.06
TATACTTTAT | 1.02 ± 0.037
TATAGACAGG | 0.989 ± 0.057
TATAGAGGTT | 0.992 ± 0.015
TATAGCAGGG | 1.03 ± 0.018
TATAGCTACC | 1.13 ± 0.043

Sequence | switch fluorescence ratio
TATAGGGAAA | 1.09 ± 0.11
TATAGGGAAG | 1.02 ± 0.026
TATAGGGAGC | 0.947 ± 0.017
TATAGGGCGG | 1.13 ± 0.21
TATAGGGGAT | 1.032 ± 0.0068
TATAGGGGGC | 1.03 ± 0.05
TATAGGTGTT | 1.05 ± 0.028
TATAGTCTA | 1.01 ± 0.031
TATAGTGGAG | 1.024 ± 0.0069
TATATAGAGC | 1.02 ± 0.011
TATATAGCGC | 0.983 ± 0.044
TATATAGGTA | 1.01 ± 0.043
TATATATAGA | 1 ± 0.041
TATATATATG | 0.955 ± 0.031
TATATATTTA | 0.988 ± 0.024
TATATCAGTT | 1.007 ± 0.0087
TATATGACGG | 0.997 ± 0.027
TATATGGATT | 0.999 ± 0.015
TATATGGCCC | 1.02 ± 0.02
TATATGTATC | 0.9678 ± 0.0011
TATATTAAGA | 1.01 ± 0.016
TATATTAGCC | 1.03 ± 0.039
TATATTGAAC | 1.022 ± 0.0028
TATATTGCGT | 0.9711 ± 0.0073
TATATTGTA | 0.986 ± 0.03
